Data on 4 molecules can be found in patent US20230158180A1 (SLOAN KETTERING INSTITUTE FOR CANCER RESEARCH, published 2023).

Non-standard residues stand in square brackets, D forms with d. Groups on a side chain read outwards from the residue. *: point of attachment. Cy5 silica nanoparticle = Cy5 dye-containing core-shell silica nanoparticle (~7 nm); PEG = not defined here; 124I = [124I]*

In assay [1] the target is melanocortin-1 receptor (MC1R) on murine B16/F1 and B16F10 melanoma cells (mouse) (UniProt Q01727). Description: same type of competitive binding assay (given for reference).
For assay [2], the target named is melanocortin-1 receptor (MC1R) on human M21 melanoma cells (human) (UniProt Q01726). Description: flow cytometry dose response, M21 melanoma cells. In general terms: A flow cytometer gives signals particle by particle.
Assay [3] has as its target melanocortin-1 receptor (MC1R) on murine B16/F1 and B16F10 melanoma cells (mouse) (UniProt Q01727). Put plainly: competitive binding against ^125I-NDP, cultured B16/F1 melanoma cells.
Assay [4] has the same target. Put plainly: flow cytometry dose response, B16F10 melanoma cells.
Assay [5] has as its target T1, αvβ3 integrin receptor (human, on M21 melanoma cells and HUVEC cells) (human, UniProt P06756 31-1048; P05106 27-788). Put plainly: cell-based or functional assay.
Assay [6] deals with T1, αvβ3 integrin receptor (human, on M21 …). Description: Scatchard analysis, gamma counting, M21 cells. Here is the method:
To assay particle binding and specificity for M21 cells, 24-well plates were coated with 10 μg/ml collagen type I (BD Biosciences, Bedford, Mass.) in phosphate buffered saline (PBS) and incubated (37° C., 30 min). M21 cells (3.0-4.0×10^5 cells/well) were grown to confluency and washed with RPMI 1640 media/0.5% bovine serum albumin (BSA). ¹²⁴I-cRGD-PEG-nanoparticles (0-4.0 ng/ml) were added to wells and cells incubated (25° C., 4 hours), washed with RPMI 1640 media/0.5% BSA, and dissolved in 0.2 M NaOH. […] Nonspecific binding was determined in the presence of a 1000-fold excess of cRGD (Peptides International, Louisville, Ky.). Scatchard plots of the binding data were generated and analyzed using linear regression analyses (Microsoft Excel 2007) to derive receptor-binding parameters (Kd, Bmax, IC50).
To examine in vitro binding affinity and specificity of ¹²⁴I-cRGDY-PEG-dots and ¹²⁴I-PEGdots to tumor and vascular endothelial surfaces, αᵥβ₃ integrin-overexpressing (M21) and nonexpressing (M21L) melanoma and human umbilical vein endothelial (HUVECs) cell lines were used. Highly specific linear and saturable binding of the cRGDY-PEG-dots was observed over a range of particle concentrations (0 to 8 ng/ml) and incubation times (up to 5-hrs), with maximum differential binding at 4-hr and ˜2.0 ng/ml particle concentration (data not shown) using flow cytometry. […]

Assay [7] has the same target. Description: competitive binding, gamma counting, M21 cells. Here is the method:
Nonspecific binding was determined in the presence of a 1000-fold excess of cRGD (Peptides International, Louisville, Ky.). Scatchard plots of the binding data were generated and analyzed using linear regression analyses (Microsoft Excel 2007) to derive receptor-binding parameters (Kd, Bmax, IC50).
To examine in vitro binding affinity and specificity of ¹²⁴I-cRGDY-PEG-dots and ¹²⁴I-PEGdots to tumor and vascular endothelial surfaces, αᵥβ₃ integrin-overexpressing (M21) and nonexpressing (M21L) melanoma and human umbilical vein endothelial (HUVECs) cell lines were used. Highly specific linear and saturable binding of the cRGDY-PEG-dots was observed over a range of particle concentrations (0 to 8 ng/ml) and incubation times (up to 5-hrs), with maximum differential binding at 4-hr and ˜2.0 ng/ml particle concentration (data not shown) using flow cytometry. Receptor-binding specificity of ¹²⁴I-cRGDY-PEG dots was tested using γ-counting methods after initially incubating M21 cells with excess non-radiolabeled cRGD and then adding various concentrations of the radiolabeled targeted probe (FIG. 8A). […] Based on the Bmax value, the αᵥβ₃ integrin receptor density was estimated to be […] per M21 cell, in reasonable agreement with the previously published estimate of 5.6×10⁴ for this cell line. Cressman, et al., Binding and uptake of RGD-containing ligands to cellular αᵥβ₃ integrins. […]

Chain of melanocortin-1 receptor (MC1R) on murine B16/F1 and B16F10 melanoma cells (mouse) (Q01727 whole entry, one chain of several): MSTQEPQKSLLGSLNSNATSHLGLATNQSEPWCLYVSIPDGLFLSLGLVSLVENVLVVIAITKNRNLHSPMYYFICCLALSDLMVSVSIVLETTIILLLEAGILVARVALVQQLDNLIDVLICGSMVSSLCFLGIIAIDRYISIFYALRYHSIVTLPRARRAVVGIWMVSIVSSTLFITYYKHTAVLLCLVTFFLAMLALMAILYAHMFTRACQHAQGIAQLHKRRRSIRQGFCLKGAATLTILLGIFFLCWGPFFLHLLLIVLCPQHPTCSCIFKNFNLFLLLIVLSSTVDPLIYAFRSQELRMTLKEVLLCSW
T1 sequence (P06756 31-1048, chain 1 of 2): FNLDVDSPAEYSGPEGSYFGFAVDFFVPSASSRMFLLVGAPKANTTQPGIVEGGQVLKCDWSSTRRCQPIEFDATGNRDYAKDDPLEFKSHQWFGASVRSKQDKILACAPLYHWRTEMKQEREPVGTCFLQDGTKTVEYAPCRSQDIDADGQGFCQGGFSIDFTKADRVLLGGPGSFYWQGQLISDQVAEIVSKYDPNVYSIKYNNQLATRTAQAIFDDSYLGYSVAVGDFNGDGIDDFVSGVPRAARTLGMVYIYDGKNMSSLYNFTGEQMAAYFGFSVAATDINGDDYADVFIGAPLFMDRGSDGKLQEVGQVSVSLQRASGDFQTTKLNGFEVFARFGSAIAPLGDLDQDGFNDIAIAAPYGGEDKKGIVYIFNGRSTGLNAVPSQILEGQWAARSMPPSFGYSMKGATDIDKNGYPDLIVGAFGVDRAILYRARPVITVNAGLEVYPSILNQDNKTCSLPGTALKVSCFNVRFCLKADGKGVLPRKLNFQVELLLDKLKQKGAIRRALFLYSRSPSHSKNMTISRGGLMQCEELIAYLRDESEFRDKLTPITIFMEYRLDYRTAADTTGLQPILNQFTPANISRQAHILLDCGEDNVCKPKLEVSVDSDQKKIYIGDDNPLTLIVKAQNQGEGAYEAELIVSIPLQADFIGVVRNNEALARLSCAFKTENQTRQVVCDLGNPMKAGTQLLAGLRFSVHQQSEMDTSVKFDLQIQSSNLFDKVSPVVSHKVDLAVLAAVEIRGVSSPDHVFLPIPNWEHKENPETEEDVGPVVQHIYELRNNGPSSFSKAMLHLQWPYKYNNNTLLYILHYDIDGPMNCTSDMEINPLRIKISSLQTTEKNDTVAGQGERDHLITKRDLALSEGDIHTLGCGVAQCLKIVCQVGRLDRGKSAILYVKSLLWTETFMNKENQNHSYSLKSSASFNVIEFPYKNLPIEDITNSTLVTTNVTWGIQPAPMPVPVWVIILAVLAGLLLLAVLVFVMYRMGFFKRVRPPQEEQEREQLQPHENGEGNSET
T1 sequence (P05106 27-788, chain 2 of 2): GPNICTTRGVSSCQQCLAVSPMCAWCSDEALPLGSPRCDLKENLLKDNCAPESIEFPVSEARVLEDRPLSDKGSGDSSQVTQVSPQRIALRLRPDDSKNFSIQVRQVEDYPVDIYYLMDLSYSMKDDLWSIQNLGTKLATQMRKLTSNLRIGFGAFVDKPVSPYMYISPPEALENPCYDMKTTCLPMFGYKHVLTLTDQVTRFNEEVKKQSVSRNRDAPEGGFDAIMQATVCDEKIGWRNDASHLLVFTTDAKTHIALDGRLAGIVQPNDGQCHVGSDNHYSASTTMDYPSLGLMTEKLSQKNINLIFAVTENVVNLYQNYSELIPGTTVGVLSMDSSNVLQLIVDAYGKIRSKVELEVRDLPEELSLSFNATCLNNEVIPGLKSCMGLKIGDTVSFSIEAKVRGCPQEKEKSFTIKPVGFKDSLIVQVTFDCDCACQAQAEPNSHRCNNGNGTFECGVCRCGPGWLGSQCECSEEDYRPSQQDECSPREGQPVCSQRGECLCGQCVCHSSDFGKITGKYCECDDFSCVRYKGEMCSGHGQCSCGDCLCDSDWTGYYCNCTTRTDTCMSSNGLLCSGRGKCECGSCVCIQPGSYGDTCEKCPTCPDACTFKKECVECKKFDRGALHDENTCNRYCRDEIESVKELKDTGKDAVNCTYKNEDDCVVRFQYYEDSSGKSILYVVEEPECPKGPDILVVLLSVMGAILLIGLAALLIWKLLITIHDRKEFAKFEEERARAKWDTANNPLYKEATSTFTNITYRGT
Chain of melanocortin-1 receptor (MC1R) on human M21 melanoma cells (human) (Q01726 whole entry): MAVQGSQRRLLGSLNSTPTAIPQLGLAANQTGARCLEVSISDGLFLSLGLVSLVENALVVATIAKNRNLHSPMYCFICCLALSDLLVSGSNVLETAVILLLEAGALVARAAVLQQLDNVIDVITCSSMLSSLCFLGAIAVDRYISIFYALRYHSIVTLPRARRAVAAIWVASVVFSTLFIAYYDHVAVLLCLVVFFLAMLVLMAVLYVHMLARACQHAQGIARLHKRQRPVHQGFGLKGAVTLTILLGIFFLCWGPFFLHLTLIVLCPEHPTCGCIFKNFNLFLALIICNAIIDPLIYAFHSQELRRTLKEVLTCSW

With “DOTA-ReCCMSH (original ReCCMSH targeting molecule) (peptide)”, the half-inhibitory concentration (IC50) in assay [1] worked out at 2100 pM.
Regarding “alpha-MSH-PEG-Cy5-C dots (N-Ac-Cys-(Ahx)2-D-Lys-ReCCMSH peptide-bound nanoparticles)”, the saturation concentration in assay [2] and in assay [4] was 100 nM throughout. The molecule further displayed an IC50 in assay [3] of 660 pM.

B1: cRGDY-PEG-dots (non-radiolabeled, cRGDY peptide-bearing, PEG-coated Cy5 core-shell silica nanoparticles) (other)
peptide: cyclo(RGD[dY]C([maleimide-PEG-Cy5 silica nanoparticle]))
modifications: not fully specified; reading uncertain; also: Cys linked via maleimide to PEG on Cy5 silica nanoparticle
Consider B1, for which, in assay [5], the “methylene blue uptake (absorbance) of attached M21 cells without particle pre-incubation relative to particle-exposed cells” value amounted to 2 fold and the “multivalent enhancement factor (ratio of the cRGD peptide to cRGDY-PEG-dot IC50 values), anti-adhesion assay, M21 cells on vitronectin-coated plates” value is > 2 fold.

B2: ^124I-cRGDY-PEG-dots (radioiodinated, cRGDY peptide-bearing, PEG-coated Cy5 core-shell silica nanoparticles) (other)
peptide: cyclo(RGD[dY](124I)C([maleimide-PEG-Cy5 silica nanoparticle]))
modifications: not fully specified; reading uncertain; also: Cys linked via maleimide to PEG on Cy5 silica nanoparticle
B2 had a Kd in assay [6] of 510 pM. In addition, the IC50 in assay [7] was determined as 1200 pM.

As usually defined, the IC50 is the point on the concentration scale where inhibition reaches its midpoint. Usually Kd stands for the free concentration of one partner at which half of the binding sites on the other are occupied at equilibrium, for simple one-to-one binding. A high value points to weaker binding.
